Laboratory results published in patent publication CN115181181A (NANJING RONGJIEKANG BIOTECHNOLOGY CO LTD, dated 2022).

T1: 人源重组CD25蛋白 (human IL-2RA) (human, UniProt P01589 22-240)
T1 construct: extracellular domain; also called CD25重组蛋白; 人源重组胞外结构域蛋白
T1 sequence (looked up): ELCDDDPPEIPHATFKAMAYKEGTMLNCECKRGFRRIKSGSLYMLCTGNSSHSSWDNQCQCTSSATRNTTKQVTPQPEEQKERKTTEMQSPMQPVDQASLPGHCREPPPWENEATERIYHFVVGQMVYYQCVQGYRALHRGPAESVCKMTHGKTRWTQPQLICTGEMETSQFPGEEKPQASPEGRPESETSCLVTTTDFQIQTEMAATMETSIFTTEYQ

B1: 单域抗体1A5 (原核粗提VHH) (VHH)
VHH: ESGGGSVQAGGSLRLSCAASGYTYSSNCMGWFRQAPGKEREGVAAIDTGGGHTYYADSVVKGRFTISQDNAKNTVYLQMNSLKPEDTAMYYCAADSGYCYAEEPAPDRFGYWGQGTQVTVSS
notes: also called VHH1; not shown: tags from the pMECS vector (detected with anti-HA antibody)
B2: 单域抗体4D9 (原核粗提VHH) (VHH)
VHH: ESGGGSVQAGGSLRLSCAASGYPYRRNCMGWFRQAPGKEREGVAAIDSAGTTTYADSVKGRFTISKDDAKNTLYLQMNSLKPEDTAMYYCALNAPTWECRAGGAPAFAYSGQGTQVTVSS
notes: also called VHH10; not shown: tags from the pMECS vector (detected with anti-HA antibody)
B3: 单域抗体4H7 (原核粗提VHH) (VHH)
VHH: ESGGGSVQAGGSLRLSCAASESTYRRTYMAWFRQAPGKERDGVAVIYTGNGVTWYADSVEGRFTISQDNAKNTVYLQMNSLKPEDTAMYYCAADSMRGRNVLHSGFYHYWGQGTQVTVSS
notes: also called VHH11; not shown: tags from the pMECS vector (detected with anti-HA antibody)
B4: 单域抗体1B5 (原核粗提VHH) (VHH)
VHH: ESGGGSVQAGGSLRLSCAASGYTYSSNCMGWFRQAPGKEREGVAAIDTGGGYTYYADSVEGRFTISQDKAKNTVYLQMNSLKPEDTAMYYCAADTGRCFPHVPYEVDFGYWGQGTQVTVSS
notes: also called VHH2; not shown: tags from the pMECS vector (detected with anti-HA antibody)
B5: 单域抗体1E1 (原核粗提VHH) (VHH)
VHH: ESGGGSVEAGGSLRLSCARPGYDYDTDYMGWFRQAPGKEREGVATIYTQKGFTWYADSVKGRFTISQDNAKNTVYLQMNSLKPEDTAMYYCAAADYGAATSKLNPSKYNAWGQGTQVTVSS
notes: also called VHH3; not shown: tags from the pMECS vector (detected with anti-HA antibody)
B6: 单域抗体1H1 (原核粗提VHH) (VHH)
VHH: ESGGGSVQAGGSLRLSCAASGYTSRRNCMGWFRQAPGKEREGVAAINTAGGHTYYADSVEGRFTISQDNARNTVYLQMNSLKPEDTGMYYCAAETGSYCYAHVPESADFGYWGQGTQVTVSS
notes: also called VHH4; not shown: tags from the pMECS vector (detected with anti-HA antibody)
B7: 单域抗体2H3 (原核粗提VHH) (VHH)
VHH: ESGGGSVQAGGSLRLSCAASGHTSSSNRMGWFRQAPGKEPEGVAVISTGGGRTLYADSVKGRFTISQDNAKNTLGLQMNSLKPEDTAMYYCAAAASSIAISRFWTWPPKEFFDYWGQGTQVTVSS
notes: also called VHH5; not shown: tags from the pMECS vector (detected with anti-HA antibody)
B8: 单域抗体3E11 (原核粗提VHH) (VHH)
VHH: ESGGGSVQAGGSLRLSCVASGYTYSRRCMGWFRQAPGKEREGVAAIYSGNGVTYYPDSVKGRFTISQDNAKNTVYLQMNSLKPEDTAMYYCAAQGDYCYAHAPEPADFGYWGQGTQVTVSS
notes: also called VHH6; not shown: tags from the pMECS vector (detected with anti-HA antibody)
B9: 单域抗体3F5 (原核粗提VHH) (VHH)
VHH: ESGGGSVQAGGSLRLSCAASGYTYSRNCVGWFRQAPGKEREGVAAIDSGGGYSYYADSVKGRFTISQDNAKNTVFLQMNSLKPEDTAVYYCAAEPASCFPHVPTEVDFGYWGRGTQVTVSS
notes: also called VHH7; not shown: tags from the pMECS vector (detected with anti-HA antibody)
B10: 单域抗体3G3 (原核粗提VHH) (VHH)
VHH: ESGGGSVQAGGSLRLSCVGSRYTSITGCMGWFRQAPGKEREGVAAIDTGGGHTYYADSVKGRFTIAQDNAKNTVYLQVNSLKPEDTGMYYCAAEASPCFPHNPQVADFGYWGQGTQVTVSS
notes: also called VHH8; not shown: tags from the pMECS vector (detected with anti-HA antibody)
B11: 单域抗体4A4 (原核粗提VHH) (VHH)
VHH: ESGGGSVQAGETLRLSCTASGFTFDDSDMGWYRQAPGNECELVSIMRSDRSTYYAASVKGRFTISQDNAKNTVYLQMNSLKPEDTAVYHCAAAGAISIAAACPTHWWGQGTQVTVSS
notes: also called VHH9; not shown: tags from the pMECS vector (detected with anti-HA antibody)

Target: T1, 人源重组CD25蛋白 (human IL-2RA)
Assay: screening ELISA: crude VHH extract on coated CD25, anti-HA-HRP detection; positive if OD450 is over 5 times the control

Binding result, binds:
B1
B2
B3
B4
B5
B6
B7
B8
B9
B10
B11
